Data from patent US7067277B1, “Chimeric G proteins and uses thereof” (H. Lundbeck A/S, priority 1999, dated 2006).

T1: h Y1 (Homo sapiens, UniProt P25929)
T1 construct: expressed in transfected cells; host or cells: COS-7
T1 sequence (P25929 1-384): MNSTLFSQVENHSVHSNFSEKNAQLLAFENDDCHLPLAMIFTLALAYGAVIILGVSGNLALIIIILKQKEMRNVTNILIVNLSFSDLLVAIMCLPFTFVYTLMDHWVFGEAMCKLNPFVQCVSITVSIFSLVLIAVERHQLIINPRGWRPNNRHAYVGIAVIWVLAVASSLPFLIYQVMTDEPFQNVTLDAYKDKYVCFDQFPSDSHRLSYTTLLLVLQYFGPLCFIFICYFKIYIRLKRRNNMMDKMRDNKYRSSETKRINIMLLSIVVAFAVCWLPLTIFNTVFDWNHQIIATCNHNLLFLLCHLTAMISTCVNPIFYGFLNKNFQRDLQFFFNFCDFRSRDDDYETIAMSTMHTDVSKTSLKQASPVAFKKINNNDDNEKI

T2: h GALR3 (Homo sapiens, UniProt O60755)
T2 sequence (O60755 1-368): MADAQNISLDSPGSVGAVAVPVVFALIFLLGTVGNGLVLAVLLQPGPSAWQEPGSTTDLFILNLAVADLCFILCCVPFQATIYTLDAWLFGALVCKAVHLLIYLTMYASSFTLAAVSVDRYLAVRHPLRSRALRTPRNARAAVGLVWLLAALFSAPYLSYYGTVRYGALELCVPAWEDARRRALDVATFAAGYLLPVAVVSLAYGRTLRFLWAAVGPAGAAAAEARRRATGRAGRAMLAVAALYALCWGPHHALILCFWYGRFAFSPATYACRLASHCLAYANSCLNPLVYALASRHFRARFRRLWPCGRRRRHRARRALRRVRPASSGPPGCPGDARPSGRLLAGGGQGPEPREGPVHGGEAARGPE

T3: h α2B adr (Homo sapiens, UniProt P18089)
T3 construct: expressed in transfected cells; host or cells: COS-7
T3 sequence (P18089 1-450): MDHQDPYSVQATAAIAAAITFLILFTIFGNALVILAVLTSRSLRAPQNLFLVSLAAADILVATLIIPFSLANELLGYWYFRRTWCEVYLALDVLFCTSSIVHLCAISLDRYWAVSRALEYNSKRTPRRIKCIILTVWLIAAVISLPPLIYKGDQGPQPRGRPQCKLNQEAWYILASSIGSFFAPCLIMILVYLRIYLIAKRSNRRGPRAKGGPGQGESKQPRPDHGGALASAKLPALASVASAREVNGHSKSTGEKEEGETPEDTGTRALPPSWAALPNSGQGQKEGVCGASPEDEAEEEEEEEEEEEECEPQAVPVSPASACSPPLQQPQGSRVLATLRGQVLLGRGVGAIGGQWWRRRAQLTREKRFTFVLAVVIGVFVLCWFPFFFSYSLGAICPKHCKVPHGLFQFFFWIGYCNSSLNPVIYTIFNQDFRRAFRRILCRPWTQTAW


Assays:
Experiment in all cases: Calcium mobilization (FLIPR, Fluo-3) in transfected COS-7 cells
Type in all cases: cell-based
h 5HT7 = h 5HT7 (Homo sapiens, UniProt P34969); conditions: h 5HT7 + chimera in COS-7; agonist 5HT, max 100 μM
Outline: (§1)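 Assay buffer was HBSS with 20 mM HEPES (pH 7.4), 0.1% BSA and 2.5 mM probenecid, and cells were loaded with 4 μM Fluo-3. Transfected COS-7 cells carried receptor and chimeric G protein cDNA at 1:1 or 8:1:1 ratios. Peak fluorescence change gave Hill-fitted curves.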

h D2 = target: T4, h D2 (Homo sapiens, UniProt P14416); conditions: h D2 + chimera in COS-7; agonist DA, max 100 μM
T4 construct: expressed in transfected cells; host or cells: COS-7
Outline: as §1

r NTR1 = target: T5, r NTR1 (Rattus norvegicus, UniProt P20789); conditions: r NTR1 + chimera in COS-7; agonist NT, max 1 μM
T5 construct: expressed in transfected cells; host or cells: COS-7
Outline: as §1

m 5HT5A = m 5HT5A (Mus musculus, UniProt P30966); conditions: m 5HT5A + chimera in COS-7; agonist 5HT, max 100 μM
Outline: as §1

h 5HT6 = h 5HT6 (Homo sapiens, UniProt P50406); conditions: h 5HT6 + chimera in COS-7; agonist 5HT, max 100 μM
Outline: as §1

h GLP-1 = h GLP-1 (Homo sapiens, UniProt P43220); conditions: h GLP-1 + chimera in COS-7; agonist GLP-1, max 10 μM
Outline: as §1

h Y1 = target: T1, h Y1; conditions: h Y1 + chimera in COS-7; agonist NPY, max 10 μM
Outline: as §1

h GALR3 = target: T2, h GALR3; conditions: h GALR3 + chimera in COS-7; agonist GAL, max 10 μM
Outline: as §1

h α2B adr = target: T3, h α2B adr; conditions: h α2B adr + chimera in COS-7; agonist NE, max 100 μM
Outline: as §1

h MCH = h MCH (Homo sapiens, UniProt Q99705); conditions: h MCH + chimera in COS-7; agonist MCH, max 10 μM
Outline: as §1

Sequence of m 5HT5A (P30966 whole entry): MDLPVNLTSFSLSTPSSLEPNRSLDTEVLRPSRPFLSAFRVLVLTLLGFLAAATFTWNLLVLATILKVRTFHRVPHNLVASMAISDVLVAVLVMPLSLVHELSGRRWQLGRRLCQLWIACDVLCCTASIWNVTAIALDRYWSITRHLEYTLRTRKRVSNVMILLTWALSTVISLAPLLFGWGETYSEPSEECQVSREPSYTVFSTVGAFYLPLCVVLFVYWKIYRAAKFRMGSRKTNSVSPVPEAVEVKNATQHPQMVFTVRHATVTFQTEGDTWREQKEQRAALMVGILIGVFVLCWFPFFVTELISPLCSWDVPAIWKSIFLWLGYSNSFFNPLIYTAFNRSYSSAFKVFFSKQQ
Sequence of h 5HT7 (P34969 whole entry): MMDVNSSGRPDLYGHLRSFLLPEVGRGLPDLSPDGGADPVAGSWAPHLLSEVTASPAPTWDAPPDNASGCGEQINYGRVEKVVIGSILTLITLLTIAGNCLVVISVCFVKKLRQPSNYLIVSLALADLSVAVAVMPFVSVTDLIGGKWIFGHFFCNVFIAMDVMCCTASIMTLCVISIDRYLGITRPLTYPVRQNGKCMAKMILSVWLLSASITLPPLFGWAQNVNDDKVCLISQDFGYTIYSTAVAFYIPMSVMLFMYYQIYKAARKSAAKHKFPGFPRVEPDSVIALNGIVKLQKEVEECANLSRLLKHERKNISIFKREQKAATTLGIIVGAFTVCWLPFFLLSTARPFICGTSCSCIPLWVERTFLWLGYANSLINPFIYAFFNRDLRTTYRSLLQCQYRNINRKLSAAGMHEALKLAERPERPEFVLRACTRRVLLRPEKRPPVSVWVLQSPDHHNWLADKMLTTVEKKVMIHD
Sequence of h MCH (Q99705 whole entry): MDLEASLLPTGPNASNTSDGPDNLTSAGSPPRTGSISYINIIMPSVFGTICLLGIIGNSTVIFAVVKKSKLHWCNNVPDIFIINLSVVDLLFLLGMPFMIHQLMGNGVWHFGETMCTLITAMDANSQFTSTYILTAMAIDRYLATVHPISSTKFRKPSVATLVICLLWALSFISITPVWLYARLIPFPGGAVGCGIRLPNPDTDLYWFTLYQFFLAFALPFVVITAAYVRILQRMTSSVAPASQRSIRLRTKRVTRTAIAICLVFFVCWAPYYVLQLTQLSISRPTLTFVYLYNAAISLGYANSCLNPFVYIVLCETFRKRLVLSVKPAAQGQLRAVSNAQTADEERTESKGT
T4 sequence (P14416 whole entry): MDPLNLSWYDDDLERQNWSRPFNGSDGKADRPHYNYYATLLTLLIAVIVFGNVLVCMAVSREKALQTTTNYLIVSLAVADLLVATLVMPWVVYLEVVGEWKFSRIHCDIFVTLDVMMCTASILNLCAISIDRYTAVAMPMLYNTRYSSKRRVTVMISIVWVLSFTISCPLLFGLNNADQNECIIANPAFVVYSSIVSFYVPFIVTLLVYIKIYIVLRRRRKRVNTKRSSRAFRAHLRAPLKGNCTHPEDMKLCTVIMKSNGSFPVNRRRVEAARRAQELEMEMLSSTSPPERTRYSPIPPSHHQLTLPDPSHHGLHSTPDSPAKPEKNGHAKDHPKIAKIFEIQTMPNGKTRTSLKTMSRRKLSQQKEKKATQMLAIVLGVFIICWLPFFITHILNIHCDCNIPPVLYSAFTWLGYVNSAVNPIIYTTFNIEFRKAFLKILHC
Sequence of h GLP-1 (P43220 24-463): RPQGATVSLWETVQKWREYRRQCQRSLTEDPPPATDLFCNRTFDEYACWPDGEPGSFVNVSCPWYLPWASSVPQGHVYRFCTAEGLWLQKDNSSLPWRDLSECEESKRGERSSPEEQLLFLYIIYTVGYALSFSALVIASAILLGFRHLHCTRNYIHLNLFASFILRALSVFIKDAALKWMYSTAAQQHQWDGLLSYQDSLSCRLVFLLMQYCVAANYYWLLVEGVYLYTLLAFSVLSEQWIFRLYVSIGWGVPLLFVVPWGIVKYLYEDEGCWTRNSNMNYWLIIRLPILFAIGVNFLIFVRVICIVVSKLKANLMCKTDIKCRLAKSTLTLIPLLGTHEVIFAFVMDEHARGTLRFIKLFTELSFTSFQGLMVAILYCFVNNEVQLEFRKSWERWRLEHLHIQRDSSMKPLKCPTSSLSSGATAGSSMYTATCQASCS
Sequence of h 5HT6 (P50406 whole entry): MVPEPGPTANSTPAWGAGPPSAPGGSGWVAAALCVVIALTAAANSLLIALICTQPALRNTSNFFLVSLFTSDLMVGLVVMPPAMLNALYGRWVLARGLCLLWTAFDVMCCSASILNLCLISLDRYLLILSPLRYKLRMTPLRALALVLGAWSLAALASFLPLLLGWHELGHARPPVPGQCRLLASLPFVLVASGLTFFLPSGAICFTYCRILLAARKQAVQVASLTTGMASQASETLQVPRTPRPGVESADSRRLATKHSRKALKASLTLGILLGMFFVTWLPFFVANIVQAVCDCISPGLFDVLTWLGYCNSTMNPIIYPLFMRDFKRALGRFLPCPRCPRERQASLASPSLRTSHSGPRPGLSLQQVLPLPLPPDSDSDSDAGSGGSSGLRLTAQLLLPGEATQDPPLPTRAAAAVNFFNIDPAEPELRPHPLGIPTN
T5 sequence (P20789 whole entry): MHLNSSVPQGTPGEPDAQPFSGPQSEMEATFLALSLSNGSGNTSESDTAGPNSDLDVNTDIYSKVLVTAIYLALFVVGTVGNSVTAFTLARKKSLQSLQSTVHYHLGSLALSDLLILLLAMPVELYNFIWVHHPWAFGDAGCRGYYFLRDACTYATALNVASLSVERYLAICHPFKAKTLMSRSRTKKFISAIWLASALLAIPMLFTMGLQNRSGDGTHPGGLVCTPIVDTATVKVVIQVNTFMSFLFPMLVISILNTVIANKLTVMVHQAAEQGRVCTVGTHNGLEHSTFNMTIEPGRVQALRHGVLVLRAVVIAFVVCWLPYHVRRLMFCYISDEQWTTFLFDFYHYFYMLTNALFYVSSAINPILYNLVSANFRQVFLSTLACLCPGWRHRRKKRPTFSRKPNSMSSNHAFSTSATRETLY

Row | Molecule | MAXIMAL SIGNAL (FLUORESCENCE UNITS) (h 5HT7) [fluorescence units] | MAXIMAL SIGNAL (FLUORESCENCE UNITS) (h D2) [fluorescence units] | MAXIMAL SIGNAL (FLUORESCENCE UNITS) (r NTR1) [fluorescence units] | MAXIMAL SIGNAL (FLUORESCENCE UNITS) (m 5HT5A) [fluorescence units] | MAXIMAL SIGNAL (FLUORESCENCE UNITS) (h 5HT6) [fluorescence units] | MAXIMAL SIGNAL (FLUORESCENCE UNITS) (h GLP-1) [fluorescence units] | MAXIMAL SIGNAL (FLUORESCENCE UNITS) (h Y1) [fluorescence units] | MAXIMAL SIGNAL (FLUORESCENCE UNITS) (h GALR3) [fluorescence units] | MAXIMAL SIGNAL (FLUORESCENCE UNITS) (h α2B adr) [fluorescence units] | MAXIMAL SIGNAL (FLUORESCENCE UNITS) (h MCH) [fluorescence units]
1 | cGαq/z5: chimeric Gα subunit: C-terminal final 5 amino acids of C. elegans Gαq replaced with those of hGαz (SEQ ID NO: 1) (protein, C. elegans) MACCLSEEAREQKRINQEIEKQLQRDKRNARRELKLLLLGTGESGKSTFIKQMRIIHGQGYSEEDKRAHIRLVYQNVFMAIQSMIRAMDTLDIKFGNESEELQEKAAVVREVDFESVTSFEEPYVSYIKELWEDSGIQECYDRRREYQLTDSAKYYLSDLRRLAVPDYLPTEQDILRVRVPTTGIIEYPFDLEQIIFRMVDVGGQRSERRKWIHCFENVTSIMFLVALSEYDQVLVECDNENRMEESKALFRTIITYPWFTNSSVILFLNKKDLLEEKILYSHLADYFPEYDGPPRDPIAAREFILKMFVDLNPDADKIIYSHFTCATDTENIRFVFAAVKDTILQHNLKYIGLC | 166 | 7615 | 14476 | 351 | 1289 | 131 | 7722 | 1523 | 4983 | 2699
2 | cGαq/z9: C. elegans Gαq with Gαz portion of the C-terminal tail extended to 9 amino acids (SEQ ID NO: 2) (protein, C. elegans) MACCLSEEAREQKRINQEIEKQLQRDKRNARRELKLLLLGTGESGKSTFIKQMRIIHGQGYSEEDKRAHIRLVYQNVFMAIQSMIRAMDTLDIKFGNESEELQEKAAVVREVDFESVTSFEEPYVSYIKELWEDSGIQECYDRRREYQLTDSAKYYLSDLRRLAVPDYLPTEQDILRVRVPTTGIIEYPFDLEQIIFRMVDVGGQRSERRKWIHCFENVTSIMFLVALSEYDQVLVECDNENRMEESKALFRTIITYPWFTNSSVILFLNKKDLLEEKILYSHLADYFPEYDGPPRDPIAAREFILKMFVDLNPDADKIIYSHFTCATDTENIRFVFAAVKDTILQNNLKYIGLC | 129 | 4305 | 6111 | 270 | 2287 | 135 | 6728 | 2050 | 5138 | 3332
